# From publication PMC5061712
# Columns and labels:
# [1] = biological target: FtsX‐His (full‐length pneumococcal FtsX with a His6 tag) (Streptococcus pneumoniae); assay: cross-linking; FtsX‐His and FtsE‐His together in detergent micelles with glutaraldehyde; data not shown
# [2] = biological target: FtsX‐His (full‐length pneumococcal FtsX with a His6 tag) (Streptococcus pneumoniae); assay: cross-linking; FtsX‐His (5–10 μmol/L) with glutaraldehyde (0.5–2.0 mmol/L), 30–45 min, room temperature, 50 mmol/L HEPES pH 8.0, 200 mmol/L NaCl, 5% glycerol, 0.02% DDM, 0.02% C12E8; SDS‐PAGE, Coomassie
# [3] = biological target: FtsX‐His (full‐length pneumococcal FtsX with a His6 tag) (Streptococcus pneumoniae); assay: densitometry of Coomassie‐stained bands of purified nanodiscs; FtsX‐His reconstituted in MSPE3D1/soybean lipid nanodiscs, purified by Ni‐NTA and SEC; relative intensities of MSPE3D1 and FtsX‐His bands, assuming two MSPE3D1 per nanodisc
substance,measurement,setting,value
FtsX‐His (full‐length pneumococcal FtsX with a His6 tag) (natural protein),stoichiometry N,[1],2
same,stoichiometry N,[2],2
same,FtsX‐His molecules per nanodisc (molecules per nanodisc),[3],1.5
